Source: article PMC10199020 (Nature Communications, 2023)
Values joined by “and” are separate entries in the source; they are usually repeats but may differ in a detail not shown here. Equal values may be shown once. “Also recorded” adds a separate entry of the source. Each block holds one substance with its values, some of them ahead of it.

Key:
[1] = tested on: STAT3 phosphorylation (Tyr705), IL23R + IL12Rβ1; experiment: Phospho-STAT3 AlphaLISA Surefire Ultra assay, wildtype IL23R; type: cell-based, human; settings: for Individual experimental means, phospho-STAT3 signal (Figure 6 panel b): IL-23 (5nM)
Source text: (§1) To test this, we created untagged and NanoLuc tagged versions of IL23R with the C115Y mutation. […] Using an intra-receptor NanoBRET assay to measure the basal association of receptor subunits (as previously described in Lay et al.[24]), we discovered that the […] mutant still associated with a fluorescently labelled HaloTag (HT) tagged IL12Rβ1 construct although this was reduced by 50.1% from the level of association measured for wildtype IL23R, a reduction consistent with the protein’s reduced total and surface expression (Fig. 6e).
Data are mean ± SEM from five or six (untagged) or three (NanoLuc tagged) independent experiments conducted in triplicate. For the IL23R + IL12Rβ1 data set, one outlier (11108.7) was detected using the Grubbs test (with alpha = 0.001) and removed from the statistical analysis. Statistical significance of the C115Y mutation on the alphaLISA data was assessed using a 2-way ANOVA with Tukey’s multiple comparison test. ***p < 0.001. The p value for the comparison of NL tagged construct response was 0.0001 and the p value for the comparison of untagged receptor was 0.951. c Luminescence signal measured when IL12Rβ1 was expressed with either NL-IL23R or the C115Y mutant. Data are mean ± SEM generated from the mean luminescence values of seven (C115Y) or eight independent experiments performed in pentuplicate. d The proportion of luminescence from c that emanated from extracellular protein (as defined by the reduction in luminescence after treatment with 60 μM NanoLuc extracellular inhibitor). Data are mean ± SEM generated from the mean luminescence values of five (C115Y) or six independent experiments performed in triplicate. e The BRET ratio generated from HaloTag-618 labelled cells expressing NL tagged wildtype or C115Y IL23R with HT-IL12Rβ1 or unlabelled IL12Rβ1. […] Statistical significance of differences in mean values shown in c–e were measured using a 2-sided, non-paired t test with ** indicating a p value of <0.005 and *** indicating a p value of <0.0005. […]

[2] = tested on: STAT3 phosphorylation (Tyr705), C115Y IL23R + IL12Rβ1; experiment: Phospho-STAT3 AlphaLISA Surefire Ultra assay, C115Y IL23R; type: cell-based, human; settings: for Mean, phospho-STAT3 signal (Figure 6 panel b): 5 nM IL-23; for Individual experimental means, phospho-STAT3 signal (Figure 6 panel b): IL-23 (5nM)
Source text: as §1
Data are mean ± SEM from five or six (untagged) or three (NanoLuc tagged) independent experiments conducted in triplicate. For the IL23R + IL12Rβ1 data set, one outlier (11108.7) was detected using the Grubbs test (with alpha = 0.001) and removed from the statistical analysis. Statistical significance of the C115Y mutation on the alphaLISA data was assessed using a 2-way ANOVA with Tukey’s multiple comparison test. ***p < 0.001. The p value for the comparison of NL tagged construct response was 0.0001 and the p value for the comparison of untagged receptor was 0.951. c Luminescence signal measured when IL12Rβ1 was expressed with either NL-IL23R or the C115Y mutant. Data are mean ± SEM generated from the mean luminescence values of seven (C115Y) or eight independent experiments performed in pentuplicate. d The proportion of luminescence from c that emanated from extracellular protein (as defined by the reduction in luminescence after treatment with 60 μM NanoLuc extracellular inhibitor). Data are mean ± SEM generated from the mean luminescence values of five (C115Y) or six independent experiments performed in triplicate. e The BRET ratio generated from HaloTag-618 labelled cells expressing NL tagged wildtype or C115Y IL23R with HT-IL12Rβ1 or unlabelled IL12Rβ1. Data are mean ± SEM generated from the mean BRET values of three independent experiments performed in pentuplicate. Statistical significance of differences in mean values shown in c–e were measured using a 2-sided, non-paired t test with ** indicating a p value of <0.005 and *** indicating a p value of <0.0005. The p values for the results shown in c, d and e were p = 0.148, 0.0005 and 0.0013 respectively. Source data are provided as a Source Data file.
Phosphorylation of STAT3 was measured using an AlphaLISA Surefire Ultra assay as previously described. Briefly, transfected HEK293T cells were plated into a poly-D-lysine coated 96 well tissue culture microplate and then incubated overnight. The following day media was replaced with serum free DMEM and the cells incubated for 3 h. […] An AlphaLISA SureFire Ultra assay kit (Perkin Elmer #ALSU-PST3) was then used to measure STAT3 phosphorylation at residue Tyr705. Assays were performed according to the manufacturers’ instructions.

[3] = target: T1, NL-IL23R and IL12Rβ1 (IL-23 receptor) on HEK293T cells (Homo sapiens, UniProt P42701+Q5VWK5); experiment: IL23-TMR NanoBRET competition assay; type: binding; parameters: Inhibition of IL23-TMR binding (Mean): unit not given here; settings: for Inhibition of IL23-TMR binding (Mean): 300 pM IL23-TMR
T1 construct: expressed in transfected cells; host or cells: HEK293T (ATCC CRL-3216), transient transfection
Experimental: Schematic created with Biorender.com. IL23R is shown in orange, IL12Rβ1 in purple, IL23p19 in blue, IL12p40 in green and the presence of a TAMRA fluorophore by a pink star. […] In b and c, data are mean ± SEM from 5 independent experiments conducted in either duplicate or triplicate. Details on absolute number of data points included for each concentration are provided in the associated Source Data file.
(§2) Transient transfections for experiments outlined in Fig. 6 were conducted by seeding 100 μL of 2 × 10^5 cells/ml concentrated HEK293T cells into poly-D-lysine (PDL) coated white 96 well clear bottom assay microplates (Greiner) and incubating overnight. The following day transfection mixes were made up that contained a 4:1 ratio of IL23R to IL12Rβ1 constructs to a total concentration of 100 ng per well with a 0.3 μL per well of FuGENE HD transfection reagent (Promega) in OptiMEM (Gibco). These mixtures were incubated for 10 min before being added to the plate at 5 μL per well. The cells were then incubated overnight to allow expression. For all other experiments 2 mL containing 4 × 10^5 cells were seeded into 6 well plates and incubated 5 h before being transiently transfected with 100 μL per well of a transfection mix containing 2 μg of DNA and 6 μL of FuGENE HD. These cells were then incubated overnight before being re-suspended the following day and seeded into PDL coated white assay microplates at 100 μL containing 3 × 10^4 transfected cells. Cells were then incubated overnight before the experiment. Estimates of total expression levels for the different NL-constructs were made by comparing the luminescence levels achieved to that of a NanoLuciferase standard curve measured under the same conditions (Supplementary Fig. 1).
Media was removed from white 96-well microplates containing transfected cells and replaced with fluoroprobe in the presence or absence of antagonist in 50 μL Hanks Balanced Salt Solution (HBSS) with 1 mg/mL BSA (Merck).
(§3) Antagonist competition data were fit with the equation:4 Y=Bmin+Bmax−Bmin/1+10^(LogXC50−[A])C Where ‘Bmax’ is the maximum BRET signal, ‘Bmin’ is the minimum BRET signal, ‘LogXC50’ is the log of the 50% inhibiting concentration of antagonist, ‘[A]’ is the concentration of antagonist and ‘C’ is the Hill slope.

[4] = target: T1, NL-IL23R and IL12Rβ1 (IL-23 receptor) on HEK293T cells; experiment: P630-TMR NanoBRET competition assay; type: binding; settings: for Displacement of 75 nM P630-TMR (Mean): Fig. 5a
Experimental: as §2
Media was removed from white 96-well microplates containing transfected cells and replaced with fluoroprobe in the presence or absence of antagonist in 50 μL Hanks Balanced Salt Solution (HBSS) with 1 mg/mL BSA (Merck). After a 1-hour incubation at 37 °C without CO2, 5 μL of HBSS containing 77 μM furimizine was added to each well (final concentration 7 μM), the plate incubated for 5-minutes and the BRET signal measured using a PheraStar FS plate reader (BMG Labtech; data acquisition software version 5.41; MARS analysis software version 3.32) with a 450 ± 30 nm and >550 nm long pass filters.
as §3

T1 sequence (Q5VWK5 24-629, other chains not shown): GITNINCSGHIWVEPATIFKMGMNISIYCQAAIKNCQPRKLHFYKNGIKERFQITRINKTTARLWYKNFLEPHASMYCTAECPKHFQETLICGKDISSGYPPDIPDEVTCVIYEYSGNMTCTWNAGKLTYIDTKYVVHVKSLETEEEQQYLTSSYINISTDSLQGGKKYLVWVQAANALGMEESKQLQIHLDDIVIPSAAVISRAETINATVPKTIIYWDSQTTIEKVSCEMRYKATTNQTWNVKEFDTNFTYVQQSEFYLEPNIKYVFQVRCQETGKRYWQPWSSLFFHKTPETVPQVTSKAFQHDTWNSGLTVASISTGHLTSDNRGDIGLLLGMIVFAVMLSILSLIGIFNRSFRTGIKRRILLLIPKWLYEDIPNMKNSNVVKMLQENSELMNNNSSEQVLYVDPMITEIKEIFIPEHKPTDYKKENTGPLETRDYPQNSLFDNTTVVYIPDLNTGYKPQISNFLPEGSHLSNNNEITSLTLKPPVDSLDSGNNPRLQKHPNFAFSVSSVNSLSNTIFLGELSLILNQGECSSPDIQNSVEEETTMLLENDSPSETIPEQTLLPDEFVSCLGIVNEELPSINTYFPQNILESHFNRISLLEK

Substance: IL-23: heterodimeric cytokine, disulphide linked complex of IL12p40 and IL23p19
Mean, phospho-STAT3 signal (Figure 6 panel b) ([1]; 5 nM IL-23, transfection NL-IL23R + IL12Rβ1, N 3): 5562.78
Individual experimental means, phospho-STAT3 signal (Figure 6 panel b) ([1]; transfection IL23R + IL12Rβ1): 2394 and 1760.67 and 1431.33 and 2064.67 and 2014
Individual experimental means, phospho-STAT3 signal (Figure 6 panel b) ([1]; transfection NL-IL23R + IL12Rβ1): 2330.67 and 6586.67 and 7771
Mean, phospho-STAT3 signal (Figure 6 panel b) ([2]; transfection IL23R (C115Y) + IL12Rβ1, N 6): 1388.06
Mean, phospho-STAT3 signal (Figure 6 panel b) ([2]; transfection NL-IL23R (C115Y) + IL12Rβ1, N 3): 1262.44
Individual experimental means, phospho-STAT3 signal (Figure 6 panel b) ([2]; transfection IL23R (C115Y) + IL12Rβ1): 1279.33 and 1494.67 and 1589.67 and 1247.67 and 1140 and 1577
Individual experimental means, phospho-STAT3 signal (Figure 6 panel b) ([2]; transfection NL-IL23R (C115Y) + IL12Rβ1): 760 and 1260.33 and 1767

Inhibition of IL23-TMR binding (Mean) ([3]; [TEEEQQLY] -4.56864 logM): 13.433
Inhibition of IL23-TMR binding (Mean) ([3]; [TEEEQQLY] -5.04576 logM): 6.927
Inhibition of IL23-TMR binding (Mean) ([3]; [TEEEQQLY] -5.52288 logM): 9.9603
Inhibition of IL23-TMR binding (Mean) ([3]; [TEEEQQLY] -6 logM): 11.7979
Inhibition of IL23-TMR binding (Mean) ([3]; [TEEEQQLY] -6.47712 logM): 6.708
Inhibition of IL23-TMR binding (Mean) ([3]; [TEEEQQLY] -6.95424 logM): 2.6729
Inhibition of IL23-TMR binding (Mean) ([3]; [TEEEQQLY] -7.43136 logM): 2.475
Inhibition of IL23-TMR binding (Mean) ([3]; [TEEEQQLY] -7.90849 logM): 7.532
Displacement of 75 nM P630-TMR (Mean) ([4]; [TEEEQQLY] -4.09691 logM): -0.7672
Displacement of 75 nM P630-TMR (Mean) ([4]; [TEEEQQLY] -4.79588 logM): 3.824
Displacement of 75 nM P630-TMR (Mean) ([4]; [TEEEQQLY] -5.49485 logM): 1.157
Displacement of 75 nM P630-TMR (Mean) ([4]; [TEEEQQLY] -6.19382 logM): -2.412
Displacement of 75 nM P630-TMR (Mean) ([4]; [TEEEQQLY] -6.89279 logM): -1.937
Displacement of 75 nM P630-TMR (Mean) ([4]; [TEEEQQLY] -7.59176 logM): -4.432
Displacement of 75 nM P630-TMR (Mean) ([4]; [TEEEQQLY] -8.29073 logM): -0.4835
Displacement of 75 nM P630-TMR (Mean) ([4]; [TEEEQQLY] -8.9897 logM): -1.857
Substance: TEEEQQLY [octapeptide reported to be a negative allosteric modulator (NAM) of the IL-23 receptor]
Displacement of IL23-TMR ([3]; NL-IL23R and IL12Rβ1): not to displace IL23-TMR; also recorded: Did not displace labelled probe
Displacement of P630-TMR ([4]; NL-IL23R and IL12Rβ1): did not displace P630-TMR; also recorded: Did not displace labelled probe
